Measured values: patent US20210388087A1 (Chugai, published 2021)
Positions count from the first letter of the chain named. Each block holds one binder with its values, some of them ahead of it.

Biological target: T1, CD3 epsilon homodimer protein (UniProt P07766 23-126)
T1 construct: also called CD3 (CD3 epsilon)
Assay: SPR, CD3 epsilon homodimer on chip, one-arm antibody as analyte;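 further: surface plasmon resonance at 25 °C with CD3 epsilon homodimer amine-coupled to a CM4 sensor chip, antibody injected as analyte, HBS-EP+ as running buffer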

T1 sequence (P07766 23-126): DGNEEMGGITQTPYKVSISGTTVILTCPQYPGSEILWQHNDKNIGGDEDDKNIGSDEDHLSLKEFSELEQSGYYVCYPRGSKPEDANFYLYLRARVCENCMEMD

- KD ratio (KD of CE115HA000/KD of altered form): 1.03
B1: CE115HA000 N54Y (antibody, human IgG1, kappa, L234A L235A, N297A, name in Kabat numbering)
heavy: QVQLVESGGGVVQPGRSLRLSCAASGFTFSNAWMHWVRQAPGKGLEWVAQIKAKSNYYATYYAESVKGRFTISRDDSKNSLYLQMNSLKTEDTAVYYCRYVHYGAYYGVDAWGQGTTVTVSSASTKGPSVFPLAPSSKSTSGGTAALGCLVKDYFPEPVTVSWNSGALTSGVHTFPAVLQSSGLYSLSSVVTVPSSSLGTQTYICNVNHKPSNTKVDKKVEPKSCDKTHTCPPCPAPEAAGGPSVFLFPPKPKDTLMISRTPEVTCVVVDVSHEDPEVKFNWYVDGVEVHNAKTKPREEQYASTYRVVSVLTVLHQDWLNGKEYKCKVSNKALPAPIEKTISKAKGQPREPQVYTLPPSRCELTKNQVSLSCAVKGFYPSDIAVEWESNGQPENNYKTTPPVLDSDGSFFLVSKLTVDKSRWQQGNVFSCSVMHEALHNHYTQKSLSLSPDYKDDDDK
chain: EPKSSDKTHTCPPCPAPELLGGPSVFLFPPKPKDTLMISRTPEVTCVVVDVSHEDPEVKFNWYVDGVEVHNAKTKPREEQYNSTYRVVSVLTVLHQDWLNGKEYKCKVSNKALPAPIEKTISKAKGQPREPQVCTLPPSRDELTKNQVSLWCLVKGFYPSDIAVEWESNGQPENNYKTTPPVLDSDGSFFLYSKLTVDKSRWQQGNVFSCSVMHEALHNRYTQKSLSLSP
light: DIVMTQSPLSLPVTPGEPASISCRSSQSLVHSNRNTYLHWYQQKPGQAPRLLIYKVSNRFSGVPDRFSGSGSGTDFTLKISRVEAEDVGVYYCGQGTQVPYTFGQGTKLEIKRTVAAPSVFIFPPSDEQLKSGTASVVCLLNNFYPREAKVQWKVDNALQSGNSQESVTEQDSKDSTYSLSSTLTLSKADYEKHKVYACEVTHQGLSSPVTKSFNRGEC
notes: one-arm antibody

- KD ratio (KD of CE115HA000/KD of altered form): 0.86
B2: CE115HA000 S52cK (antibody, human IgG1, kappa, L234A L235A, N297A, name in Kabat numbering)
heavy: B1 heavy with S55K, Y57N
chain: B1 chain
light: B1 light
notes: one-arm antibody

- KD ratio (KD of CE115HA000/KD of altered form): 0.93
B3: CE115HA000 S52cF (antibody, human IgG1, kappa, L234A L235A, N297A, name in Kabat numbering)
heavy: B1 heavy with S55F, Y57N
chain: B1 chain
light: B1 light
notes: one-arm antibody

- KD ratio (KD of CE115HA000/KD of altered form): 0.82
B4: CE115HA000 S62E (antibody, human IgG1, kappa, L234A L235A, N297A, name in Kabat numbering)
heavy: B1 heavy with Y57N, S65E
chain: B1 chain
light: B1 light
notes: one-arm antibody

- KD ratio (KD of CE115HA000/KD of altered form): 22.6
B5: CE115HA000 Q50A (antibody, human IgG1, kappa, L234A L235A, N297A, name in Kabat numbering)
heavy: B1 heavy with Q50A, Y57N
chain: B1 chain
light: B1 light
notes: one-arm antibody

- KD ratio (KD of CE115HA000/KD of altered form): 0.7
B6: CE115HA000 S74P (antibody, human IgG1, kappa, L234A L235A, N297A, name in Kabat numbering)
heavy: B1 heavy with Y57N, S77P
chain: B1 chain
light: B1 light
notes: one-arm antibody

- KD ratio (KD of CE115HA000/KD of altered form): 0.81
B7: CE115HA000 S52cG (antibody, human IgG1, kappa, L234A L235A, N297A, name in Kabat numbering)
heavy: B1 heavy with S55G, Y57N
chain: B1 chain
light: B1 light
notes: one-arm antibody

- KD ratio (KD of CE115HA000/KD of altered form): 0.83
B8: CE115HA000 S77T (antibody, human IgG1, kappa, L234A L235A, N297A, name in Kabat numbering)
heavy: B1 heavy with Y57N, S80T
chain: B1 chain
light: B1 light
notes: one-arm antibody

- KD ratio (KD of CE115HA000/KD of altered form): 0.87
B9: CE115HA000 S52cY (antibody, human IgG1, kappa, L234A L235A, N297A, name in Kabat numbering)
heavy: B1 heavy with S55Y, Y57N
chain: B1 chain
light: B1 light
notes: one-arm antibody

- KD ratio (KD of CE115HA000/KD of altered form): 0.81
B10: CE115HA000 R19T (antibody, human IgG1, kappa, L234A L235A, N297A, name in Kabat numbering)
heavy: B1 heavy with R19T, Y57N
chain: B1 chain
light: B1 light
notes: one-arm antibody

- KD ratio (KD of CE115HA000/KD of altered form): 0.74
B11: CE115HA000 R16E (antibody, human IgG1, kappa, L234A L235A, N297A, name in Kabat numbering)
heavy: B1 heavy with R16E, Y57N
chain: B1 chain
light: B1 light
notes: one-arm antibody

- KD ratio (KD of CE115HA000/KD of altered form): 16700
B12: CE115HA000 Q50E (antibody, human IgG1, kappa, L234A L235A, N297A, name in Kabat numbering)
heavy: B1 heavy with Q50E, Y57N
chain: B1 chain
light: B1 light
notes: one-arm antibody

- KD ratio (KD of CE115HA000/KD of altered form): 49.1
B13: CE115HA000 Q50Y (antibody, human IgG1, kappa, L234A L235A, N297A, name in Kabat numbering)
heavy: B1 heavy with Q50Y, Y57N
chain: B1 chain
light: B1 light
notes: one-arm antibody

- KD ratio (KD of CE115HA000/KD of altered form): 0.89
B14: CE115HA000 Q105E (antibody, human IgG1, kappa, L234A L235A, N297A, name in Kabat numbering)
heavy: B1 heavy with Y57N, Q114E
chain: B1 chain
light: B1 light
notes: one-arm antibody

- KD ratio (KD of CE115HA000/KD of altered form): 0.77
B15: CE115HA000 S62P (antibody, human IgG1, kappa, L234A L235A, N297A, name in Kabat numbering)
heavy: B1 heavy with Y57N, S65P
chain: B1 chain
light: B1 light
notes: one-arm antibody

- KD ratio (KD of CE115HA000/KD of altered form): 47.4
B16: CE115HA000 Q50S (antibody, human IgG1, kappa, L234A L235A, N297A, name in Kabat numbering)
heavy: B1 heavy with Q50S, Y57N
chain: B1 chain
light: B1 light
notes: one-arm antibody

- KD ratio (KD of CE115HA000/KD of altered form): 0.87
B17: CE115HA000 R16Q (antibody, human IgG1, kappa, L234A L235A, N297A, name in Kabat numbering)
heavy: B1 heavy with R16Q, Y57N
chain: B1 chain
light: B1 light
notes: one-arm antibody

- KD ratio (KD of CE115HA000/KD of altered form): 1.41
B18: CE115HA000 Q50L (antibody, human IgG1, kappa, L234A L235A, N297A, name in Kabat numbering)
heavy: B1 heavy with Q50L, Y57N
chain: B1 chain
light: B1 light
notes: one-arm antibody

- KD ratio (KD of CE115HA000/KD of altered form): 0.87
B19: CE115HA000 S62D (antibody, human IgG1, kappa, L234A L235A, N297A, name in Kabat numbering)
heavy: B1 heavy with Y57N, S65D
chain: B1 chain
light: B1 light
notes: one-arm antibody

- KD ratio (KD of CE115HA000/KD of altered form): 0.55
B20: CE115HA000 S52cD (antibody, human IgG1, kappa, L234A L235A, N297A, name in Kabat numbering)
heavy: B1 heavy with S55D, Y57N
chain: B1 chain
light: B1 light
notes: one-arm antibody

- KD ratio (KD of CE115HA000/KD of altered form): 75.4
B21: CE115HA000 Q50D (antibody, human IgG1, kappa, L234A L235A, N297A, name in Kabat numbering)
heavy: B1 heavy with Q50D, Y57N
chain: B1 chain
light: B1 light
notes: one-arm antibody

- KD ratio (KD of CE115HA000/KD of altered form): 0.82
B22: CE115HA000 S52cV (antibody, human IgG1, kappa, L234A L235A, N297A, name in Kabat numbering)
heavy: B1 heavy with S55V, Y57N
chain: B1 chain
light: B1 light
notes: one-arm antibody

- KD ratio (KD of CE115HA000/KD of altered form): 0.84
B23: CE115HA000 N76S (antibody, human IgG1, kappa, L234A L235A, N297A, name in Kabat numbering)
heavy: B1 heavy with Y57N, N79S
chain: B1 chain
light: B1 light
notes: one-arm antibody

- KD ratio (KD of CE115HA000/KD of altered form): 0.77
B24: CE115HA000 S74A (antibody, human IgG1, kappa, L234A L235A, N297A, name in Kabat numbering)
heavy: B1 heavy with Y57N, S77A
chain: B1 chain
light: B1 light
notes: one-arm antibody

- KD ratio (KD of CE115HA000/KD of altered form): 0.93
B25: CE115HA000 S30G (antibody, human IgG1, kappa, L234A L235A, N297A, name in Kabat numbering)
heavy: B1 heavy with S30G, Y57N
chain: B1 chain
light: B1 light
notes: one-arm antibody

- KD ratio (KD of CE115HA000/KD of altered form): 0.79
B26: CE115HA000 S30D (antibody, human IgG1, kappa, L234A L235A, N297A, name in Kabat numbering)
heavy: B1 heavy with S30D, Y57N
chain: B1 chain
light: B1 light
notes: one-arm antibody

- KD ratio (KD of CE115HA000/KD of altered form): 0.87
B27: CE115HA000 S52cA (antibody, human IgG1, kappa, L234A L235A, N297A, name in Kabat numbering)
heavy: B1 heavy with S55A, Y57N
chain: B1 chain
light: B1 light
notes: one-arm antibody

- KD ratio (KD of CE115HA000/KD of altered form): 1.21
B28: CE115HA000 Q50I (antibody, human IgG1, kappa, L234A L235A, N297A, name in Kabat numbering)
heavy: B1 heavy with Q50I, Y57N
chain: B1 chain
light: B1 light
notes: one-arm antibody

- KD ratio (KD of CE115HA000/KD of altered form): 0.71
B29: CE115HA000 Q50K (antibody, human IgG1, kappa, L234A L235A, N297A, name in Kabat numbering)
heavy: B1 heavy with Q50K, Y57N
chain: B1 chain
light: B1 light
notes: one-arm antibody

- KD ratio (KD of CE115HA000/KD of altered form): 0.99
B30: CE115HA000 S62K (antibody, human IgG1, kappa, L234A L235A, N297A, name in Kabat numbering)
heavy: B1 heavy with Y57N, S65K
chain: B1 chain
light: B1 light
notes: one-arm antibody

- KD ratio (KD of CE115HA000/KD of altered form): 0.97
B31: CE115HA000 S52cQ (antibody, human IgG1, kappa, L234A L235A, N297A, name in Kabat numbering)
heavy: B1 heavy with S55Q, Y57N
chain: B1 chain
light: B1 light
notes: one-arm antibody

- KD ratio (KD of CE115HA000/KD of altered form): 0.56
B32: CE115HA000 N82aD (antibody, human IgG1, kappa, L234A L235A, N297A, name in Kabat numbering)
heavy: B1 heavy with Y57N, N86D
chain: B1 chain
light: B1 light
notes: one-arm antibody

- KD ratio (KD of CE115HA000/KD of altered form): 0.94
B33: CE115HA000 S52cL (antibody, human IgG1, kappa, L234A L235A, N297A, name in Kabat numbering)
heavy: B1 heavy with S55L, Y57N
chain: B1 chain
light: B1 light
notes: one-arm antibody
